Data on four sequences can be found in patent US10500249B2, “Compositions and methods for preventing or treating diseases, conditions, or processes characterized by aberrant fibroblast proliferation and extracellular matrix deposition” (MOERAE MATRIX, INC., priority 2014, dated 2019).

Experiment in all cases: Kinase Profiling Assay
Holding throughout (format): biochemical
Holding throughout (details): 100 μM

The target of one experiment is T1, CDK1/cyclinB (h) (Homo sapiens, UniProt P06493).
T1 construct: purchased Millipore
The gist of the method:
(§1)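 Measured twice per kinase, activity in presence of MK2 inhibitory peptide was calculated against a 100% activity control after radiometric phosphorylation of a cationic substrate, anionic filter capture and scintillation counting; one of 266 human kinases profiled for specificity.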

The target of the next experiment is T2, CK2 (h) (Homo sapiens, UniProt P68400).
T2 construct: purchased Millipore
The procedure, abridged:
as §1

The target in another experiment is Flt3 (h) (Homo sapiens, UniProt P36888). The procedure, abridged:
as §1

A further experiment has as its target T3, GCK (h) (Homo sapiens, UniProt Q12851).
T3 construct: purchased Millipore
T3 sequence (Q12851 1-820): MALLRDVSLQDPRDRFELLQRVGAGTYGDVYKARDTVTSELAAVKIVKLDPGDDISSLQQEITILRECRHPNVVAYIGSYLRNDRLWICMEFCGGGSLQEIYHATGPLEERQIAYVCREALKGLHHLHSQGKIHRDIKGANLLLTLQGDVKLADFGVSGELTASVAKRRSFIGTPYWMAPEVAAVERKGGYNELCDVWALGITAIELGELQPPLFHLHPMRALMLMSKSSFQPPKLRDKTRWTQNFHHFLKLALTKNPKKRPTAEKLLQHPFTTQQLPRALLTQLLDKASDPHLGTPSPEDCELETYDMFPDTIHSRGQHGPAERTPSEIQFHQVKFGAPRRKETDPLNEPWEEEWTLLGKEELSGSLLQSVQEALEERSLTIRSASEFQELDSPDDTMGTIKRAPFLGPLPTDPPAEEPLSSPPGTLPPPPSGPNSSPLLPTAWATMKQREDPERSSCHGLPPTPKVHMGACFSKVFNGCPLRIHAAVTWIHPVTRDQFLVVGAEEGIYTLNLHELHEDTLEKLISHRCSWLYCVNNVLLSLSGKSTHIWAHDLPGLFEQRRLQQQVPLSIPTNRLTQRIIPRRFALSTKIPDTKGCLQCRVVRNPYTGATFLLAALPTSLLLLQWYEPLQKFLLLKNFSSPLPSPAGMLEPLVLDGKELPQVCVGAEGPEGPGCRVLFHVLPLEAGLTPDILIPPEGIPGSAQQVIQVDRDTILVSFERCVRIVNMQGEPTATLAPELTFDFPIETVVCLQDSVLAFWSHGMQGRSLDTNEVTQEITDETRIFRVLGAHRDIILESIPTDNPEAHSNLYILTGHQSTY
The procedure, abridged:
as §1

Another experiment concerns the target T4, Hck (h) (Homo sapiens, UniProt P08631).
T4 construct: purchased Millipore
The procedure, abridged:
as §1

The next experiment addresses T5, IRAK1 (h) (Homo sapiens, UniProt P51617).
T5 construct: purchased Millipore
The gist of the method:
as §1

The target in a further experiment is Lck (h) activated (Homo sapiens, UniProt P06239). The procedure, abridged: as §1
Another experiment concerns the target MEK1 (h) (Homo sapiens, UniProt Q02750). The procedure, abridged:
as §1

The next experiment deals with T6, PDGFRα (h) (Homo sapiens, UniProt P16234).
T6 construct: purchased Millipore
The procedure, abridged: as §1

Another experiment concerns the target T7, PKD2 (h) (Homo sapiens, UniProt Q9BZL6).
T7 sequence (Q9BZL6 1-878): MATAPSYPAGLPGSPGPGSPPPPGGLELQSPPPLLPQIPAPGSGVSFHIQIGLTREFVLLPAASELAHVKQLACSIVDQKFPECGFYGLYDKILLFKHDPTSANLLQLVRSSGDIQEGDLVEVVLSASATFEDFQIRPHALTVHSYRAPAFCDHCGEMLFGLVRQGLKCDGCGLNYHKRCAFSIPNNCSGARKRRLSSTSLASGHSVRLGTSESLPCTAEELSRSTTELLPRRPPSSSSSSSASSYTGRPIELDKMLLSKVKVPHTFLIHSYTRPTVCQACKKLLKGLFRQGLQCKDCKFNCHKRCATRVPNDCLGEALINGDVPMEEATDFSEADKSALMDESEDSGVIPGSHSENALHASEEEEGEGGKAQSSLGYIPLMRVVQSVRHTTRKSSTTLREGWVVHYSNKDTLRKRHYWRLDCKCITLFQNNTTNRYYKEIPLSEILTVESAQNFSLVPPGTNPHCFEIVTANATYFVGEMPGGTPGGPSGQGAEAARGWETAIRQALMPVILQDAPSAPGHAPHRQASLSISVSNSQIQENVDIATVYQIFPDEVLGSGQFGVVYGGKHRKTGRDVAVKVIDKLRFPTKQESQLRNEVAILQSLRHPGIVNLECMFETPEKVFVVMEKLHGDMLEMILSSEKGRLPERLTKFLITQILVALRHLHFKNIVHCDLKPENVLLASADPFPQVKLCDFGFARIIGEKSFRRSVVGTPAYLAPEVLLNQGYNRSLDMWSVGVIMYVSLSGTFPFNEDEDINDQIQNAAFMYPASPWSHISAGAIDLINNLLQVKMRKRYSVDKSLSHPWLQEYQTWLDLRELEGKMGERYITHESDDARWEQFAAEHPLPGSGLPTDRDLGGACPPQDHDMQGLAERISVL
The procedure, abridged: as §1

The target in a further experiment is Ron (h) (Homo sapiens, UniProt Q04912). The procedure, abridged: as §1
In the next experiment the target is T8, SAPK3 (h) (Homo sapiens, UniProt P53778).
T8 sequence (P53778 1-367): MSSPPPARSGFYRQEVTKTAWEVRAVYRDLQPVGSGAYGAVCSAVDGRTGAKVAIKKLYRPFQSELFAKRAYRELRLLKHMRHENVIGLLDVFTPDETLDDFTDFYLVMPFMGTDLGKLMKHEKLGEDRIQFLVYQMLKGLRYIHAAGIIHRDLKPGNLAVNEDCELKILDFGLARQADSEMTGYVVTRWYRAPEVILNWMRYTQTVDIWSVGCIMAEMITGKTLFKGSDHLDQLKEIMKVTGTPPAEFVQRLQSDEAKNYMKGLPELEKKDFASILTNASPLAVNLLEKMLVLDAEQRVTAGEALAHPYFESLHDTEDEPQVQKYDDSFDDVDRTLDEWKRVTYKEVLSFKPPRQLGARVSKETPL
The procedure, abridged: as §1

The target in another experiment is PKCη (h) (Homo sapiens, UniProt P24723). The gist of the method: as §1
PKCη (h), sequence (P24723 whole entry): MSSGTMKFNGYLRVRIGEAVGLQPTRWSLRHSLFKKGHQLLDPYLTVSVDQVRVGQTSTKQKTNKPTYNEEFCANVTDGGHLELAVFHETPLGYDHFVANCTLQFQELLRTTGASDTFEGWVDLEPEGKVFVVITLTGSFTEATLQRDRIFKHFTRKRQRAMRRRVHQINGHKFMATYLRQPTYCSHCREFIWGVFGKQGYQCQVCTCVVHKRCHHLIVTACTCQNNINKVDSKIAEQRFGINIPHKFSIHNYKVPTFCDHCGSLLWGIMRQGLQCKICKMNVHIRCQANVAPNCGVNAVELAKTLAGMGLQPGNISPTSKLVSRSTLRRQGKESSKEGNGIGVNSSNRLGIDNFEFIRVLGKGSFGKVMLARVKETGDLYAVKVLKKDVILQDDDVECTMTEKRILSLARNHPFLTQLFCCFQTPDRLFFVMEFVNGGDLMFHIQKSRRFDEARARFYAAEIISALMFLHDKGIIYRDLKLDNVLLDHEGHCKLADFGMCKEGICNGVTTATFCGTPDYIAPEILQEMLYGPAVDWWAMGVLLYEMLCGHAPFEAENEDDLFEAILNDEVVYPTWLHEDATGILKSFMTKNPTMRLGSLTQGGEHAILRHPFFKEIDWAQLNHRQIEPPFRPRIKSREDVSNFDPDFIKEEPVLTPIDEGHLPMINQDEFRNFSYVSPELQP

T6 sequence (P16234 24-1089): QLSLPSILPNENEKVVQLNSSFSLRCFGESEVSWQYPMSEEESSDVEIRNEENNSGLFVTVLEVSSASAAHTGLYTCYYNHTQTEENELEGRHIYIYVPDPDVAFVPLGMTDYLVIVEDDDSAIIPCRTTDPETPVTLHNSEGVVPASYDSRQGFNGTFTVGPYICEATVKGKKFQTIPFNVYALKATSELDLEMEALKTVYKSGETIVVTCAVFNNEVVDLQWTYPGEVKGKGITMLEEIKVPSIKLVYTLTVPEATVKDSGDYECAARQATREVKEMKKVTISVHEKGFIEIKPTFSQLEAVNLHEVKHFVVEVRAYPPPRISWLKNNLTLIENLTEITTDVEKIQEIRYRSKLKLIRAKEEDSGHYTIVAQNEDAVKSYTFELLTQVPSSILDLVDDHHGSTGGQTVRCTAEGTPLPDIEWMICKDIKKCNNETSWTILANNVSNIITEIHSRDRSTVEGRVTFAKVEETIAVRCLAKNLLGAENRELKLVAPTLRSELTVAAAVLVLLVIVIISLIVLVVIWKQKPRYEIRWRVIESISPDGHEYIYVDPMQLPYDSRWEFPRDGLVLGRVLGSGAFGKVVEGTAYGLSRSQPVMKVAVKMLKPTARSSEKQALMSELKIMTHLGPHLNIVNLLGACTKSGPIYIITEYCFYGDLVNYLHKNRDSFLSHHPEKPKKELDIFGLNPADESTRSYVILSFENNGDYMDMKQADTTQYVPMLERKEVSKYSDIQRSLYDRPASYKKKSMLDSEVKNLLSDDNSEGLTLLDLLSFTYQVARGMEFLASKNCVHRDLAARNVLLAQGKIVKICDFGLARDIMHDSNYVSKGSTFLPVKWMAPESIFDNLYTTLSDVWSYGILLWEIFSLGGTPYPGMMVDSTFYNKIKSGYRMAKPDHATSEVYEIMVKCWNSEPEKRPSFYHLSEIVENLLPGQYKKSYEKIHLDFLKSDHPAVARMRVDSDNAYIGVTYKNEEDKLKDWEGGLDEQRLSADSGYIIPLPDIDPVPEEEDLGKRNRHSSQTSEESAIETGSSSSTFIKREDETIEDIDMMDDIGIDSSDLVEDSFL
T2 sequence (P68400 whole entry): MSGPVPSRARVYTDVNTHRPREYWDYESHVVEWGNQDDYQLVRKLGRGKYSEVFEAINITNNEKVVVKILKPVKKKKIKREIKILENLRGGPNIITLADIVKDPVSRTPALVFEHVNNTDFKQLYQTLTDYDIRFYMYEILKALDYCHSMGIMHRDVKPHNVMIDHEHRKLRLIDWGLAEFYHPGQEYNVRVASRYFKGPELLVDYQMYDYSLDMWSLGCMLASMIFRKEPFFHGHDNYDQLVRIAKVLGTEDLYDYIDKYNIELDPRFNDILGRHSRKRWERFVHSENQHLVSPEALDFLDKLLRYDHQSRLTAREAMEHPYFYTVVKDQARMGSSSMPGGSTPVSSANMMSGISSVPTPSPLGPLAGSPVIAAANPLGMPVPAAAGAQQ
T2 sequence (P67870 whole entry partner): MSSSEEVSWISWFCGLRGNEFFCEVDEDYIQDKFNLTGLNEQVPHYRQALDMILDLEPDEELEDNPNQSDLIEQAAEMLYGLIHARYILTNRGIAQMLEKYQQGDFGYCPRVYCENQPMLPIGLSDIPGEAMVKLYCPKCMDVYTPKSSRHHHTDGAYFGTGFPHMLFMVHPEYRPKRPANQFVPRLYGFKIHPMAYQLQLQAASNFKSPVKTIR
Lck (h) activated, sequence (P06239 whole entry): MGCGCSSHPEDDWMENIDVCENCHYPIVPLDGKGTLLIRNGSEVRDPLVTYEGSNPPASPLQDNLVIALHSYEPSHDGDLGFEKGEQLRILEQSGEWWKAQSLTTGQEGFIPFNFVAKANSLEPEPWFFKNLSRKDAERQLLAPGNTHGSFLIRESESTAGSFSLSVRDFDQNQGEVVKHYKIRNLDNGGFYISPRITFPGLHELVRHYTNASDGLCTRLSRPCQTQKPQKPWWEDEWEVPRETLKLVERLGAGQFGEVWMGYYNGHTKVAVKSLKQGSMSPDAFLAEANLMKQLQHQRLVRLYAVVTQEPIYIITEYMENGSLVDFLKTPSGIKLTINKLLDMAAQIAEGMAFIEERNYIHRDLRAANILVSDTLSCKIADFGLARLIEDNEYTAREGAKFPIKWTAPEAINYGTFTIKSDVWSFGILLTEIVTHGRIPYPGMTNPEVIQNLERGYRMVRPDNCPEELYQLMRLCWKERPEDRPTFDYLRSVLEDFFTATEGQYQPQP
T5 sequence (P51617 whole entry): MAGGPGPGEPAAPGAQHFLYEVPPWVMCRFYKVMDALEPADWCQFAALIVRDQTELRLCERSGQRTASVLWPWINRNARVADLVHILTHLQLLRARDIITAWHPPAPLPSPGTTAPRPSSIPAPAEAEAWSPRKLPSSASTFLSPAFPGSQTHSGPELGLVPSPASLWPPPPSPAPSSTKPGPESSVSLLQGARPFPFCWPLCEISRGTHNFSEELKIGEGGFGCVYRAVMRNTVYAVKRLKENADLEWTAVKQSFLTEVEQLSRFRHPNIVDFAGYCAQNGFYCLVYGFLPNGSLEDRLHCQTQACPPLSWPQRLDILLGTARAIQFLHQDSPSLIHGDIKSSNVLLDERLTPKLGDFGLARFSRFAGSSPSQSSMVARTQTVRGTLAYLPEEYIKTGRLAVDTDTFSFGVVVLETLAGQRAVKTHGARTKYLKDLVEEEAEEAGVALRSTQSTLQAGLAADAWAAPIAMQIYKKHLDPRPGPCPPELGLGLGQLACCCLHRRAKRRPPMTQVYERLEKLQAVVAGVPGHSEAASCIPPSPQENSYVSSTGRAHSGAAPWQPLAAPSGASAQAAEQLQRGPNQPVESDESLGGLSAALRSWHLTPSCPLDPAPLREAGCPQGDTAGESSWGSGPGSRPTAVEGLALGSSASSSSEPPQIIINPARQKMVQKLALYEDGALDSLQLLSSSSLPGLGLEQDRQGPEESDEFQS
T4 sequence (P08631 whole entry): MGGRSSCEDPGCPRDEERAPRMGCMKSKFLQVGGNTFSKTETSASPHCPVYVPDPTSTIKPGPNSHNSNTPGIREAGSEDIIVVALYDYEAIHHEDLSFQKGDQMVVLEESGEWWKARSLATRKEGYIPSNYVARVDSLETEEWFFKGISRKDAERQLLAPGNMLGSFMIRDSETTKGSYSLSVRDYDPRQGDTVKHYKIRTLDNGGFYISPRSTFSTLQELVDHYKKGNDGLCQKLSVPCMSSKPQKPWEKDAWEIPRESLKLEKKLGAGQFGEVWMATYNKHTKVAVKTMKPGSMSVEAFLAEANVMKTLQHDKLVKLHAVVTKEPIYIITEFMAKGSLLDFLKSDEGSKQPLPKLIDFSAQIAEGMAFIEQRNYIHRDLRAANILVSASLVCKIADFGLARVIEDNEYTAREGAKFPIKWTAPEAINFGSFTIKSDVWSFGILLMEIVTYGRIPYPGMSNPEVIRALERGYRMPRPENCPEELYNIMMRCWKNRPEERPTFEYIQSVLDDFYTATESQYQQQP
T1 sequence (P06493 whole entry): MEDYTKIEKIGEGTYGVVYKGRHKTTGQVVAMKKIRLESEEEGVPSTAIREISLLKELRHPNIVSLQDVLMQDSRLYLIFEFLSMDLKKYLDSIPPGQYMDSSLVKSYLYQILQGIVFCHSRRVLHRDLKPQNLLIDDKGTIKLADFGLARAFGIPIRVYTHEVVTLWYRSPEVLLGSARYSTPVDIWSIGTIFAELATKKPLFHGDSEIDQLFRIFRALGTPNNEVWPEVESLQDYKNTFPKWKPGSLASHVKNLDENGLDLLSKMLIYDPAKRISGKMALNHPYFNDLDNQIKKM
T1 sequence (P14635 whole entry partner): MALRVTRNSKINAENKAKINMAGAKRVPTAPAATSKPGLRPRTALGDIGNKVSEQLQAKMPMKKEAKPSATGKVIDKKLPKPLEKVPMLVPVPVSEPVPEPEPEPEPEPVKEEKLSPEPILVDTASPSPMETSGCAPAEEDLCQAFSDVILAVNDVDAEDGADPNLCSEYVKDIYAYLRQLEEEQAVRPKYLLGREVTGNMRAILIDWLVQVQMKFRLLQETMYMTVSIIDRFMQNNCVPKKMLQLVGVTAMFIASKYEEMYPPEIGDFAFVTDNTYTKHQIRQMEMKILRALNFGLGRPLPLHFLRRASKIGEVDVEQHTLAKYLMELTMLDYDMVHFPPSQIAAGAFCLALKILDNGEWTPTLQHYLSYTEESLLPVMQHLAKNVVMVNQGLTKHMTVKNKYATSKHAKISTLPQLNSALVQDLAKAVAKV

In the case of FAKLAARLYRKALARQLGVAA [MMI-0300], the “% activity” value with CDK1/cyclinB (h) was 73%; with CK2 (h), 90%; in the experiment with Flt3 (h), 84%; with GCK (h) it was 70%; in the experiment with Hck (h), 72%; in the experiment with IRAK1 (h) it was 95%. Besides, the “% activity” value with Lck (h) activated turned out to be 243%; with MEK1 (h), 77%; in the experiment with PDGFRα (h) it was 65%; with PKD2 (h), 33%; with Ron (h) it was 93%; with SAPK3 (h) it was 84%.
For “HRRIKAWLKKIKALARQLGVAA (Mammalian) [MMI-0500]”, the “% activity” value came to 57% with CDK1/cyclinB (h); 93% with CK2 (h); 17% with Flt3 (h); 30% in the experiment with GCK (h); 78% in the experiment with Hck (h); 5% with IRAK1 (h). The “% activity” value is on record as 76% in the experiment with Lck (h) activated; 21% with MEK1 (h); 40% in the experiment with PDGFRα (h); 45% with PKCη (h); 10% with PKD2 (h); 46% in the experiment with Ron (h). The “% activity” value with SAPK3 (h) was 24%.
In the case of “YARAAARQARAKALNRQLGVA (Mammalian) [MMI-0200]”, the “% activity” value in the experiment with CK2 (h) was 83%; in the experiment with Flt3 (h), 99%; in the experiment with GCK (h) it was 99%; with IRAK1 (h), 101%; with Lck (h) activated, 90%; with PDGFRα (h), 108%. In addition, the “% activity” value with PKCη (h) turned out to be 101%; with PKD2 (h), 78%; in the experiment with Ron (h), 120%; with SAPK3 (h), 97%.
Regarding KAFAKLAARLYRKALARQLGVAA [MMI-0400], the “% activity” value with CDK1/cyclinB (h) is given as 74%; with CK2 (h) it was 101%; in the experiment with Flt3 (h) it was 18%; in the experiment with GCK (h), 66%; with Hck (h) it was 72%; with IRAK1 (h) it was 93%. Besides, the “% activity” value with Lck (h) activated worked out at 216%; with MEK1 (h), 77%; with PDGFRα (h) it was 40%; in the experiment with PKCη (h), 98%; in the experiment with PKD2 (h), 25%; with Ron (h) it was 79%. In addition, in the experiment with SAPK3 (h), the “% activity” value amounted to 79%.
